Measurements as given in patent publication US20040126856A1, “Factor ixa: factor Vllla interaction and methods therefor” (priority 2004, published 2004).
Each block holds one molecule with its values, some of them ahead of it. No end group written: not given here.

Columns and labels:
[1] = molecular target: IXaPCEGF1:A2 subunit interaction; assay: A2 558-565 peptide inhibition of IXaPCEGF1:A2 subunit interaction (factor X activation, tenase system); format: biochemical, human; conditions: 100 nM IXaPCEGF1, 30 nM A2 subunit, 250 nM factor X, 25 μM PL (FIG. 5)
Method: (§1) Determination of the Apparent Kdpeptide of Binding of Each Factor IXa to the A2 558-565 Peptide.
(§2) The apparent Kd (termed Kdpeptide) for binding of each factor IXa to the A2 558-565 peptide was determined by its ability to inhibit the respective IXa:A2 subunit interaction as measured by reduction in the rate of factor X activation in the tenase system. The reaction mixtures for both IXaWT and IXaPCEGF1 contained 100 nM factor IXa, 30 nM A2 subunit, 250 nM factor X, and 25 μM PL in TBS/BSA, pH 7.5 with 5 mM CaCl2. The reaction mixture for IXaR333Q contained 300 nM factor IXa instead of 100 nM used for IXaWT or IXaPCEGF1; concentrations of other components were the same. The amount of factor Xa generated was determined by hydrolysis of S-2222. The IC50 values were obtained using Eq. 2. Here, y is the rate of factor Xa formation in the presence of a given concentration of the A2 558-565 peptide represented by x, and a is the maximum rate of factor Xa formation in the absence of the A2 peptide. Eq. 3 was then used to obtain the apparent Kdpeptide values. In this context, A is the concentration of IXaWT, IXaPCEGF1, or IXaR333Q, and EC50 is the apparent KdA2 for the respective IXa:A2 subunit interaction.

[2] = molecular target: T1, IXaR333Q:A2 subunit interaction (Homo sapiens, UniProt P00740, R379Q); assay: A2 558-565 peptide inhibition of IXaR333Q:A2 subunit interaction (factor X activation, tenase system); format: biochemical
T1 construct: made in house
T1 sequence (P00740 47-191): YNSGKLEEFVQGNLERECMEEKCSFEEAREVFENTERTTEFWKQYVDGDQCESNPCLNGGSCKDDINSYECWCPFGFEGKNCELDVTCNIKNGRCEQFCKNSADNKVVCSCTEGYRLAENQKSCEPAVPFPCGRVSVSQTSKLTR
T1 sequence (P00740 227-461 R379Q): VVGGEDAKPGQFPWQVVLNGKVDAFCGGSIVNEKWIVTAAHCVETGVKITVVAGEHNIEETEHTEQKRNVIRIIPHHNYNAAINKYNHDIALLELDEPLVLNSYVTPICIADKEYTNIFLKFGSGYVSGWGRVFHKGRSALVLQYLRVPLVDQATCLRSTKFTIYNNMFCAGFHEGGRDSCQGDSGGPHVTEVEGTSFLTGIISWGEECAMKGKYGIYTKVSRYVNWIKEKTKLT
Method: as §1, §2

factor Xa generation = conditions: Fay et al., 1994; Fay and Koshibu, 1998; cited from earlier work
factor VIIIa = molecular target: T2, factor VIIIa (Homo sapiens, UniProt P00451); assay: EC50 for factor IXa-factor VIIIa interaction in the tenase complex; format: biochemical; conditions: 0.07 nM factor VIIIa, 480 nM factor X, 10 μM PL, 5 mM CaCl2; read-out: EC50 (functional Kd) for factor IXa-factor VIIIa interaction
T2 construct: to yield factor VIIIa, a heterotrimer composed of A1, A2 and A3-C1-C2 subunits; cleaved by thrombin at R372-S373, R740-S741, and R1689-S1690 to yield factor VIIIa
T2 sequence (P00451 20-391): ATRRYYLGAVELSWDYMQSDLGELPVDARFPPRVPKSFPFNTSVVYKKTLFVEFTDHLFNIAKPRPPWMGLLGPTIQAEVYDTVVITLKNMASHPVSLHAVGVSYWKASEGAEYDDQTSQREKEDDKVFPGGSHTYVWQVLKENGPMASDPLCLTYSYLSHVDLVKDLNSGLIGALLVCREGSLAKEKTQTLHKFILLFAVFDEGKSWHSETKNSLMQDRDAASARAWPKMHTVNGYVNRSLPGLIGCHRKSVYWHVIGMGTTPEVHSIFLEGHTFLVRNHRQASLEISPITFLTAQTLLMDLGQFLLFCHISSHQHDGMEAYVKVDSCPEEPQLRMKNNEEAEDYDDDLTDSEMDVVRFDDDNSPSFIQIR
T2 sequence (P00451 392-759): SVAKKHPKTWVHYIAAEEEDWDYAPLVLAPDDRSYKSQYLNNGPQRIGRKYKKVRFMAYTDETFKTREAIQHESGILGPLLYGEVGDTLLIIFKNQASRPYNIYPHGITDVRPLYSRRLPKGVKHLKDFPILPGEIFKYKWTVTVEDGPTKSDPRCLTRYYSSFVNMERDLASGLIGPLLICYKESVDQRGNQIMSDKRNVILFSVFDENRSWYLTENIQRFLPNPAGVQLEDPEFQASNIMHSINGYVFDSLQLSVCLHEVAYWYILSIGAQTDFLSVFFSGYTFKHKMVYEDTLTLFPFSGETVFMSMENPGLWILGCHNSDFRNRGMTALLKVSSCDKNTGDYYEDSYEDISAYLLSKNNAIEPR
T2 sequence (P00451 1709-2351): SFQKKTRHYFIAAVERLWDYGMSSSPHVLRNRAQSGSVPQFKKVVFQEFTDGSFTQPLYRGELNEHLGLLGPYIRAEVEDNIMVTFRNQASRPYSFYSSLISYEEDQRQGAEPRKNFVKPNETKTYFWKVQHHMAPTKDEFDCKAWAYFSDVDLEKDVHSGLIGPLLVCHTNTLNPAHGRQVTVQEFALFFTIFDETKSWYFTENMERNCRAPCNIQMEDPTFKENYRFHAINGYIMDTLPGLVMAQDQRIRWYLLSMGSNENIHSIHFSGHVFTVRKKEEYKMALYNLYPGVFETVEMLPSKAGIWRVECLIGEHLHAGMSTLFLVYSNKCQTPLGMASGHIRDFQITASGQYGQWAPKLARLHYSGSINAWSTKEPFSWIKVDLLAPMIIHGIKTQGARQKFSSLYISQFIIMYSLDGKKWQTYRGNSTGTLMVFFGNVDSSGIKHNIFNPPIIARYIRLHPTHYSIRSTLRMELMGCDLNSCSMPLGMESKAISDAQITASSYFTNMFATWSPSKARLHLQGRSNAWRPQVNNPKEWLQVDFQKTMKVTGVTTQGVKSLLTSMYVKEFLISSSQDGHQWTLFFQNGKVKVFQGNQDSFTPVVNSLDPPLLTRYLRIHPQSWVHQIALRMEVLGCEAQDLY
Method: Determination of the EC50 of for Factor IXa-Factor VIIIa Interaction in the Tenase Complex
These experiments are performed with normal factor IXa in the presence of phospholipid (PL) vesicles. 50-μl reaction mixtures in TBS-BSA (50 mM Tris-HCl, pH 7.4, 1 mg/ml BSA) with 5 mM CaCl2 and 10 μM PL are prepared containing a fixed concentration of factor VIIIa (0.07 nM) and various concentrations of factor IXa (0-20 nM) at a constant concentration of factor X (480 nM), which is added last to initiate the reaction. The reaction is carried out at 37° C. for 30-120 seconds at which time 1 μl of 0.5 M EDTA is added to stop further generation of factor Xa. A 40 μl aliquot is added to a 0.1-mL quartz cuvette containing a synthetic substrate S-2222 in 75 μl of TBS-BSA, pH 7.4. The final concentration of S-2222 is 100 μM. The p-nitroaniline release is measured continuously (ΔA405/min) for up to 20 minutes (Mathur et al., 1997). Factor Xa generated is calculated from a standard curve constructed using factor Xa prepared by insolubilized Russell's viper venom. In control experiments, at each factor X concentration used, the rate of factor Xa generation is also measured at various concentrations of normal factor IXa in the absence of factor VIIIa; these control values are ˜5% of the experimental values in the presence of factor VIIIa and are subtracted before analysis of the data. […]

[3] = molecular target: factor IXaPCEGF1 (factor IXa replacement mutant in which the EGF1 domain is replaced by that of protein C) (human) (UniProt P04070); assay: apparent Kdpeptide against that of WT
[4] = molecular target: factor IXaPCEGF1 (factor IXa replacement mutant in which the EGF1 domain is replaced by that of protein C) (human) (UniProt P04070); assay: calculated from apparent Kdpeptide, against WT
[5] = molecular target: T3, factor IXaR333Q (factor IXa point mutant in which Arg333 is replaced by Gln) (human, UniProt P00740 47-190; P00740 227-461, gamma-carboxyglutamic acid residues in the Gla domain (normal Gla content)); assay: apparent Kdpeptide against that of WT
T3 construct: R333 is c165 in chymotrypsin numbering; also called IXR333Q
T3 sequence (P00740 47-190, stated change not applied, form in doubt, chain 1 of 2): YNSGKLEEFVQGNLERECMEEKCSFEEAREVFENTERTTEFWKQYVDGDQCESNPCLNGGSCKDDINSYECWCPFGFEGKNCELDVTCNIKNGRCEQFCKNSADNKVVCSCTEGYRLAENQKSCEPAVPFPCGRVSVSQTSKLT
T3 sequence (P00740 other isoform, or with tags, fused parts or gaps mutant, form in doubt, chain 2 of 2): as the sequence (P00740 227-461 R379Q) above
Excerpt: Eq. 3 was then used to obtain the apparent Kdpeptide values.
(§3) The Cheng and Prusoff relationship (Cheng and Prusoff, 1973; Craig, 1993) was then used to obtain apparent Kdpeptide values for each factor IXa protein.

[6] = molecular target: factor IXaPCEGF1 (factor IXa replacement mutant in which the EGF1 domain is replaced by that of protein C) (human) (UniProt P04070); assay: calculated from apparent Kdpeptide (RT ln Kd, 298 K)
[7] = molecular target: T3, factor IXaR333Q (factor IXa point …); assay: peptide inhibition of IXa:A2 interaction; factor Xa generation (FIG. 5)
Method: (§4) Factor Xa generation was determined by S-2222 hydrolysis, and the curves represent best fit to the IC₅₀ four-parameter logistic equation (Eq. 2).
(§5) The amount of factor Xa generated was determined by hydrolysis of S-2222. The IC₅₀ values were obtained using Eq. 2. […] Eq. 3 was then used to obtain the apparent Kdpeptide values.

[8] = molecular target: factor IXaPCEGF1 (factor IXa replacement mutant in which the EGF1 domain is replaced by that of protein C) (human) (UniProt P04070); assay: peptide inhibition of IXaPCEGF1:A2 in tenase assay (FIG. 5); IC50 converted by Cheng-Prusoff; apparent Kdpeptide
[9] = molecular target: factor IXaPCEGF1 (factor IXa replacement mutant in which the EGF1 domain is replaced by that of protein C) (human) (UniProt P04070); assay: peptide inhibition of IXaPCEGF1:A2 interaction; 100 nM IXa, 30 nM A2, 250 nM factor X; factor Xa generation (FIG. 5)
[10] = molecular target: T4, factor IXaWT (wild-type recombinant factor IX activated by factor XIa) (human, UniProt P00740 47-190; P00740 227-461, gamma-carboxyglutamic acid residues in the Gla domain (residues 1-40, 12 Gla; normal Gla content)); assay: peptide inhibition of IXaWT:A2 interaction; 100 nM IXa, 30 nM A2, 250 nM factor X; factor Xa generation (FIG. 5)
T4 construct: Two-chain, disulfide-linked protease; also called IXWT
T4 sequence (P00740 47-190, form in doubt, chain 1 of 2): as the sequence (P00740 47-190, stated change not applied, form in doubt, chain 1 of 2) above
T4 sequence (P00740 227-461, form in doubt, chain 2 of 2): as the sequence (P00740 227-461 R379Q) above, with Q153R counted along it
Method: as §4, §5

[11] = molecular target: T4, factor IXaWT (wild-type recombinant …); assay: peptide inhibition of IXaWT:A2 in tenase assay (FIG. 5); IC50 converted by Cheng-Prusoff; apparent Kdpeptide
Method: as §5, §3

[12] = molecular target: T3, factor IXaR333Q (factor IXa point …); assay: peptide inhibition of IXaR333Q:A2 interaction; 300 nM IXa, 30 nM A2, 250 nM factor X; factor Xa generation (FIG. 5)
Method: as §4, §5

[13] = molecular target: T3, factor IXaR333Q (factor IXa point …); assay: peptide inhibition of IXaR333Q:A2 in tenase assay (FIG. 5); IC50 converted by Cheng-Prusoff; apparent Kdpeptide
Method: as §5

IC50 [1]: ~8 µM | Fold higher IC50 for IXaR333Q:A2 than for IXaWT or IXaPCEGF1 [2]: ~9 fold
Molecule: SVDQRGNQ [A2 558-565 peptide]
Effect on factor Xa generation in purified systems (factor Xa generation): inhibit factor Xa generation

EC50 (factor VIIIa): ~0.4 nM
Molecule: normal factor IXa: normal factor IXa used in the tenase complex of Example 2

fold-change in apparent Kd (mutant/WT) [3]: 1 fold | change in delta G° between the mutant and WT [4]: 0 kcal/mol | fold-change in apparent Kd (mutant/WT) [5]: 15 fold | Gibbs free energy (delta G° peptide) [6]: 7.36 kcal/mol | fold higher IC50 than for IXaWT or IXaPCEGF1 [7]: ~9 fold | Kd [8]: 4 µM | IC50 [9]: 8 µM | IC50 [10]: ~8 µM | Kd [11]: 4 µM | IC50 [12]: ~70 µM | Kd [13]: 62 µM
Molecule: SVDQRGNQ [synthetic peptide corresponding to the A2 subunit residues 558-565 (Ser-Val-Asp-Gln-Arg-Gly-Asn-Gln)]
